Source: patent US20110287023A1 (AstraZeneca / MedImmune, published 2011)

B1: human anti-HMG1 antibody E11 (antibody, IgG1, V domains shown)
VH: EVQLLESGGGLVQPGGSLRLSCAASGFTFSRYQMNWVRQAPGKGLEWVSSISPSGGHTHYADSVKGRFTISRDNSKNTLYLQMNSLRAEDTAVYYCAKDGRQGKISTVDHWGQGTLVTVSS
VL: DIQMTQSPGTLSLSPGERATLSCRASQSVRSNFLAWYQQKPGQAPRLLIYGASRRASGIPDRFSGSGFGADFTLSISRLEPEDFAVYYCQQYGSSPNTFGQGSRVEIK
notes: full length IgG1 made from a human Fab phage clone
B2: human anti-HMG1 antibody G4 (antibody, IgG1, V domains shown)
VH: EVQLLESGGGLVQPGGSLRLSCAASGFTFSWYDMTWVRQAPGKGLEWVSSISPSGGYTKYADSVKGRFTISRDNSKNTLYLQMNSLRAEDTAVYYCTTEFYDYLDVWGKGTTVTVSS
VL: DIQMTQSPGTLSLSPGEGATLSCRASQSVSSTYLAWYQQKPGQAPRLLIYEASKRATGTPARFSGSGSGTDFTLSISSLEPEDFAVYYCQHRHNWPPQWTFGQGTKVEVK
notes: full length IgG1 made from a human Fab phage clone; also called ATCC PTA-6258

Key:
[1] = target: T1, recombinant rat HMGB-1 labelled with europium (rat, UniProt P63159 1-215, limits assumed, Eu label, molar ratio HMGB-1 to Eu 1:5); assay: inhibition of binding of 2 nM Eu-labelled recombinant rat HMGB-1 to THP-1 cells
T1 construct: also called Europium-labeled HMGB-1
T1 sequence (looked up): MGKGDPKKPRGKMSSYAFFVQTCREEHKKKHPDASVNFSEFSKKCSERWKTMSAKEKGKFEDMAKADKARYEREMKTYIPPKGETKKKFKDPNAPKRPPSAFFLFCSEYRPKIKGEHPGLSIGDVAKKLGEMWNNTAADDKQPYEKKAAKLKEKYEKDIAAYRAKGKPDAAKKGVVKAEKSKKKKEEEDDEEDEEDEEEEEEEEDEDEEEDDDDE
Procedure: HMG1 binding to THP-1 Cells: Recombinant rat HMGB-1 was labeled using Eu-labelling Kit from PerkinElmer. Molar ratio of HMGB-1 to Eu is 1:5. THP-1 were cultured as the protocol from ATCC. Cells were harvested and suspended at concentration 1×10⁶/ml in assay buffer containing 1×DELFIA L*R binding buffer (PerkinElmer), 50% of DELFIA stabilizer (PerkinElmer) and 0.05% of sodium azide. 100 μl of cells (1×10⁵) was added into wells in 96 well cell culture plate. The plate was incubated with gentle shaking at 4° C. for one hour. 100 μl of assay buffer containing 2 nM of Europium-labeled HMGB-1 mixed with various concentrations (333, 166.5, 83.25, 41.6, 20.8, 10.4 and 5.2 nM) of human anti-HMGB1 antibodies E11 or G2 or soluble human RAGE-Fc, were added into each wells respectively. After one hour incubation with gentle shaking at 4° C., the cells were washed four times with 1×L*R wash buffer (PerkinElmer) by centrifuging at 1200 rpm×5 min. 200 μl of enhancement solution was added into each well to dissociate and enhance Eu fluorescence at 615 nm. The fluorescence was measured with Wallac Victor Fluorometer. Assay was performed in triplicate and human antibody R3-47 was used the negative isotype control.

[2] = target: T2, HMGB1 in joint lysate of adjuvant induced arthritis (AIA) rats (rat, UniProt P63159 2-215); assay: sandwich ELISA: antibody captured on anti-human Fc, AIA joint lysate added, mouse anti-HMGB1 detection, OD 450
T2 construct: also called HMGB1 from arthritis joints; joint lysate HMGB1
T2 sequence (looked up): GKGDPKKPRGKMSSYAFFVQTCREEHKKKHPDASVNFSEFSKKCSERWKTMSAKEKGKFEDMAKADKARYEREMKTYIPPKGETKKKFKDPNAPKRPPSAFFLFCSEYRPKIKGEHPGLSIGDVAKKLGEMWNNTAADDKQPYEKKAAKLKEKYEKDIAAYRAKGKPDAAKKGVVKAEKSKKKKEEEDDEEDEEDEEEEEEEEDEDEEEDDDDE
Procedure: HMGB1 Detection from Biological Samples: For detection of the HMGB1 from AIA joint homogenates and peritonitis sera, sandwich ELISA was performed. Goat anti-human Fc (Pierce) 14 μg/ml in PBS was coated on Immunlon IV microtiter plate over night at 4° C. After washing and blocking with 5% milk 1 hr at room temperature, G4 or S6 in blocking buffer (10 μg/ml) were added to each well of the blocked plate. The plate was washed 1 hour later and 25 μl of AIA homogenates containing 0.8 μg/ml of HMGB1 or peritonitis sera containing 7 μg/ml of HMGB1 in 0.5 M NaCl/blocking buffer were added to the wells at two fold serial dilutions. The unbound materials were removed by washing one hr after incubation. The bound HMGB1 was detected by a mouse anti-HMGB1 antibody at 2 μg/ml followed by an anti-mouse antibody conjugated with horseradish peroxidase. Mouse peritonitis sera was obtained by heart puncture 7 days after infection with heat killed staphylococcus aureus. Joint lysate was prepared from the whole paw of AIA rats as described in Example 6 below. Human sepsis sera were purchased from a commercial source.

[3] = target: T3, HMGB1 B-box peptide 108-138 (UniProt P09429 108-138, biotinylated); assay: ELISA on biotinylated overlapping peptides
T3 peptide (looked up): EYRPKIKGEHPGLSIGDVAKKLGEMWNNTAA
Procedure: (§1) The plate was then blocked with 4% milk powder dissolved in PBS at 37° C. for 1 hour. The blocking solution was removed and replaced with human anti-HMG1 antibodies at various concentrations (see FIGS. 5A-B). […] HRP activity was detected with Sureblue HRP substrate (KPL). Plates were read at 450 nm using a Kinetic Microplate Reader (Molecular Devices). […] After washing and blocking with 1% BSA in PBS, the biotinylated peptides were individually added into the avidin coated wells and incubated for 30 min at room temperature. The serial diluted antibody G4, S16 and S6 at the initial concentration at 10 μg/ml were then transferred into the wells followed by adding mouse anti human IgG-HRP conjugate (Pierce). Detection was accomplished by adding 50 μl of tetramethylbenzidine (TMB) substrate (KPL) and the absorbance was read at 450 nm.

[4] = target: T4, HMGB1 C-terminal tail peptide 188-215 (UniProt P09429 188-215, biotinylated); assay: ELISA on biotinylated overlapping peptides
T4 peptide (looked up): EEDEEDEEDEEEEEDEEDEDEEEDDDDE
Procedure: as §1

Row | Binder | IC50 [1] | binding result [2] | binding result [3] | binding result [4]
1 | B1 | 48.1 nM | – | – | –
2 | B2 | – | binds | binds | binds
